Measurements as given in IntAct's records for PubMed 16888620.

B1: Serine/threonine-protein kinase Sgk3 (Homo sapiens), Q96BR1 (parent)
chain: MQRDHTMDYKESCPSVSIPSSDEHREKKKRFTVYKVLVSVGRSEWFVFRRYAEFDKLYNTLKKQFPAMALKIPAKRIFGDNFDPDFIKQRRAGLNEFIQNLVRYPELYNHPDVRAFLQMDSPKHQSDPSEDEDERSSQKLHSTSQNINLGPSGNPHAKPTDFDFLKVIGKGSFGKVLLAKRKLDGKFYAVKVLQKKIVLNRKEQKHIMAERNVLLKNVKHPFLVGLHYSFQTTEKLYFVLDFVNGGELFFHLQRERSFPEHRARFYAAEIASALGYLHSIKIVYRDLKPENILLDSVGHVVLTDFGLCKEGIAISDTTTTFCGTPEYLAPEVIRKQPYDNTVDWWCLGAVLYEMLYGLPPFYCRDVAEMYDNILHKPLSLRPGVSLTAWSILEELLEKDRQNRLGAKEDFLEIQNHPFFESLSWADLVQKKIPPPFNPNVAGPDDIRNFDTAFTEETVPYSVCVSSDYSIVNASVLEADDAFVGFSYAPPSEDLFL

Variants of: B1
Settings: with itch_human ITCH

effect of a mutation on the interaction | Variant
decreasing interaction | MQRDHTMDYKESCPSVSIPSSDEHREKKKRFTVYKVLVSVGRSEWFVFRRYAEFDKLYNTLKKQFPAMALKIPAKRIFGDNFDPDFIKQRRAGLNEFIQNLVRYPELYNHPDVRAFLQMDSPKHQSDPSEDEDERSSQKLHSTSQNINLGPSGNPHAKPTDFDFLKVIGKGSFGKVLLAKRKLDGKFYAVKVLQKKIVLNRKEQKHIMAERNVLLKNVKHPFLVGLHYSFQTTEKLYFVLDFVNGGELFFHLQRERSFPEHRARFYAAEIASALGYLHSIKIVYRDLKPENILLDSVGHVVLTDFGLCKEGIAISDTTTTFCGTPEYLAPEVIRKQPYDNTVDWWCLGAVLYEMLYGLPPFACRDVAEMYDNILHKPLSLRPGVSLTAWSILEELLEKDRQNRLGAKEDFLEIQNHPFFESLSWADLVQKKIPPPFNPNVAGPDDIRNFDTAFTEETVPYSVCVSSDYSIVNASVLEADDAFVGFSYAPPSEDLFL [Y362A]
